Measured values published in patent publication US20260258394A1, “PLANT ENZYMES WITH IMPROVED ACTIVITY” (MAX-PLANCK-GESELLSCHAFT ZUR FÖRDERUNG DER WISSENSCHAFTEN …, priority 2023, published 2026).

Assays:
Assay in all cases: mass photometry of purified protein
[1] = target: T1, GCC M5 (M. extorquens) β-subunit L100S, Y143H, D407I, I450V, W502R mutations (Methylorubrum extorquens)
T1 construct: Engineered β-subunit (carboxyltransferase), forms the β6 core; also called S100S; β6 core of GCC M5
T1 chain: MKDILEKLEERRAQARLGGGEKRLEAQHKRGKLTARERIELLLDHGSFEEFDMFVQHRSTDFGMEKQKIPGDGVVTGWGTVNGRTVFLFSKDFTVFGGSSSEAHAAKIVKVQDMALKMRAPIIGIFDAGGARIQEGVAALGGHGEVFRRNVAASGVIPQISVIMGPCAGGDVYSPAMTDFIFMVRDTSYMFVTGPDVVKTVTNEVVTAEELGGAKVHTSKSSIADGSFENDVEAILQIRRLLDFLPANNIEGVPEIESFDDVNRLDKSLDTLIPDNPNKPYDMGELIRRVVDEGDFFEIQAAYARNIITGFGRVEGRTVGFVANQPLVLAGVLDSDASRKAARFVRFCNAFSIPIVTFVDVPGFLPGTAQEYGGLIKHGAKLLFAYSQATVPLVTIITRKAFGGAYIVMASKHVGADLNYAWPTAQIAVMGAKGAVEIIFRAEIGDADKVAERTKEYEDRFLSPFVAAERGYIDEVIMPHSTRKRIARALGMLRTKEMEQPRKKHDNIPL
Description: (§1) Mass photometry (MP) measurements were carried out on microscope coverslips (1.5 H, 24×50 mm, Carl Roth) with CultureWell™ Reusable Gaskets (CW-50R-1.0, 50-3 mm diameter×1 mm depth) that had been washed by three consecutive rinses of water and isopropanol, prior to drying under a stream of pressurized air. Gaskets were assembled on microscope coverslips and placed on the stage of a TwoMP mass photometer (MP, Refeyn Ltd, Oxford, UK) with immersion oil. Measurements were carried out in 1× phosphate-buffered saline (PBS, 10 mM Na₂HPO₄, 1.8 mM KH₂PO₄, 137 mM NaCl, 2.7 mM KCl (pH 7.4)). To this end, 18 μL 1×PBS was used to focus the MP before 2 μL sample (1 μM protein) was added, rapidly mixed, and measured. Shortly before measuring, samples were prepared by diluting purified protein to 1 μM monomer concentration in buffer (50 mM HEPES, pH 7.8, 150 mM KCl), as determined by absorption at 280 nm. Data was acquired for 60 s at 100 frames per second using AcquireMP (Refeyn Ltd, Oxford, UK). MP contrast was calibrated to molecular masses using 50 nM of in-house purified protein mixture containing citrate-synthase complexes of known molecular masses ranging from 86 to 430 kDa. MP datasets were processed and analyzed using DiscoverMP (Refeyn Ltd, Oxford, UK). Details of MP image analysis have been described previously (Sonn-Segev, et al., 2020, Nat Commun 11, 1772).

[2] = target: T2, GCC M5_L100N (M. extorquens) β-subunit L100N, Y143H, D407I, I450V, W502R mutations (Methylorubrum extorquens)
T2 construct: Engineered β-subunit, forms the β6 core; Cryo-EM structure PDB 8PN8; also called S100N; GCC M5 S100N
T2 chain: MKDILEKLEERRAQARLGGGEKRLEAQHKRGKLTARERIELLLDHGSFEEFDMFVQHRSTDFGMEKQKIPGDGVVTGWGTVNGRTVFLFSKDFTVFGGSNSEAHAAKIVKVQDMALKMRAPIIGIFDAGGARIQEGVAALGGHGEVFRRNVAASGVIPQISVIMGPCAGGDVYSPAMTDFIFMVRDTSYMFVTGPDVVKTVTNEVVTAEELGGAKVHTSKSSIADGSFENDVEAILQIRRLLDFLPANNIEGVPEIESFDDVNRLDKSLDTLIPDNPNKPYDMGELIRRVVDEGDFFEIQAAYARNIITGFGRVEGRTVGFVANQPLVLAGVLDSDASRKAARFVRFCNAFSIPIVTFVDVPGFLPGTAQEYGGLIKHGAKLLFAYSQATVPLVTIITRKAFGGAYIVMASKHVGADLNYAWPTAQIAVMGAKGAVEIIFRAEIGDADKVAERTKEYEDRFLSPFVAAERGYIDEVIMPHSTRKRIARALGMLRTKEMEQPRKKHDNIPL
Description: as §1

[3] = target: T3, PCC WT (M. extorquens) β-subunit (Methylorubrum extorquens)
T3 construct: Wild-type β-subunit of propionyl-CoA carboxylase, forms the β6 core; also called PCC wildtype; PCC from M. extorquens
T3 chain: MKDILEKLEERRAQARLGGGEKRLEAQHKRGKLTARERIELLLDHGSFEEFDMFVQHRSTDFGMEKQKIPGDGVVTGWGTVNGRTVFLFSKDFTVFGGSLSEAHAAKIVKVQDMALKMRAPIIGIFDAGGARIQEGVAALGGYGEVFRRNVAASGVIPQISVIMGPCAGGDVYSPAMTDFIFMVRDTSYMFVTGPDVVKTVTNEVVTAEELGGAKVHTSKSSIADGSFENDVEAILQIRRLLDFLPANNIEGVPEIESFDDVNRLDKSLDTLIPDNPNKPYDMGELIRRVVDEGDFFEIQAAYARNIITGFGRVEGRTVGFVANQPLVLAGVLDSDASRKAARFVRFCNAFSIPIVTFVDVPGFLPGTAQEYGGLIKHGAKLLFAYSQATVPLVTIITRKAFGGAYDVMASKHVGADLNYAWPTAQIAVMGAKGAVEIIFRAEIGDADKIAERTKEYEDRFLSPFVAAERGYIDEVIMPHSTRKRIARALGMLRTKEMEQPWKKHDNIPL
Description: as §1

Measured: binding result

B1: PCC WT (M. extorquens) α-subunit (enzyme)
chain: MFDKILIANRGEIACRIIKTAQKMGIKTVAVYSDADRDAVHVAMADEAVHIGPAPAAQSYLLIEKIIDACKQTGAQAVHPGYGFLSERESFPKALAEAGIVFIGPNPGAIAAMGDKIESKKAAAAAEVSTVPGFLGVIESPEHAVTIADEIGYPVMIKASAGGGGKGMRIAESADEVAEGFARAKSEASSSFGDDRVFVEKFITDPRHIEIQVIGDKHGNVIYLGERECSIQRRNQKVIEEAPSPLLDEETRRKMGEQAVALAKAVNYDSAGTVEFVAGQDKSFYFLEMNTRLQVEHPVTEMITGLDLVELMIRVAAGEKLPLSQDQVKLDGWAVESRVYAEDPTRNFLPSIGRLTTYQPPEEGPLGGAIVRNDTGVEEGGEIAIHYDPMIAKLVTWAPTRLEAIEAQATALDAFAIEGIRHNIPFLATLMAHPRWRDGRLSTGFIKEEFPEGFIAPEPEGPVAHRLAAVAAAIDHKLNIRKRGISGQMRDPSLLTFQRERVVVLSGQRFNVTVDPDGDDLLVTFDDGTTAPVRSAWRPGAPVWSGTVGDQSVAIQVRPLLNGVFLQHAGAAAEARVFTRREAELADLMPVKENAGSGKQLLCPMPGLVKQIMVSEGQEVKNGEPLAIVEAMKMENVLRAERDGTISKIAAKEGDSLAVDAVILEFA
modifications: biotin covalently bound to a lysine (position not given)
notes: Co-expressed with the β-subunit and BirA in E. coli BL21-birA and purified by His-Trap; also called α-subunit of the PCC; GCC M5 α-subunit
binds: all assays above
